Experimental data as given in patent US20170176465, “RNA APTAMER AND SENSOR EMPLOYING SAME” (Kyocera Corporation, published 2017).

Experiments:
[1] = target: Human serum albumin (HSA) (Homo sapiens, UniProt P02768 P02768:25-609); assay: surface acoustic wave sensor; 5'-thiol aptamer; settings: label: 5'-biotin, 5'-amino or 5'-thiol
Description: (§1) (11) A hemoglobin sample having been diluted into 11.6 μM with HBS-P(+MgCl2) was introduced through the passage 15 to the sensing element 3. Then, the amount of phase change occurring after 5 minutes of reaction was measured. Similarly, measurement was performed with employing human serum albumin (HSA) as a sample. Further, as for the hemoglobin sample, measurement was performed on samples of various concentrations.

[2] = target: Hemoglobin (Hb), full length (Homo sapiens, UniProt P69905;P68871 P69905:2-142,P68871:2-147); assay: surface acoustic wave sensor phase change; 11.6 uM Hb; signal rises with Hb concentration; HBS-P + MgCl2; settings: tags: Abcam ab77858; chain copies: 2,2; label: 5'-biotin, 5'-amino or 5'-thiol
Description: as §1

Human serum albumin (HSA), sequence (P02768 25-609, one chain of several): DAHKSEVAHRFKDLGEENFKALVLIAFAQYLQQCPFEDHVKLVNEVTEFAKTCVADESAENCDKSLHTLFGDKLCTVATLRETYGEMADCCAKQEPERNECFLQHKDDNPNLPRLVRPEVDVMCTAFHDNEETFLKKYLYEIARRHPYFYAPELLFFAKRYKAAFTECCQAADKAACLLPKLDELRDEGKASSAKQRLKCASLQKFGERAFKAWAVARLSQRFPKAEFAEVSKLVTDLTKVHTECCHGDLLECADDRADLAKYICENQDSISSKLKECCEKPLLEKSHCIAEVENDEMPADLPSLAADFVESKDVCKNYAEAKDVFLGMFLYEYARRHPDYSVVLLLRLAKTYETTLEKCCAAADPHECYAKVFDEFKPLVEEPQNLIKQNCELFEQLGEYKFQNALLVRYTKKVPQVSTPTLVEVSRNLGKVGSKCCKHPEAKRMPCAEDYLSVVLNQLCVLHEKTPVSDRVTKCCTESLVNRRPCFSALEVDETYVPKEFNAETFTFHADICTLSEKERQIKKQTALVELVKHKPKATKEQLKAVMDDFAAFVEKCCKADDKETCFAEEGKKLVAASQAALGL
Hemoglobin (Hb), full length, sequence (P69905 2-142, chain 1 of 2): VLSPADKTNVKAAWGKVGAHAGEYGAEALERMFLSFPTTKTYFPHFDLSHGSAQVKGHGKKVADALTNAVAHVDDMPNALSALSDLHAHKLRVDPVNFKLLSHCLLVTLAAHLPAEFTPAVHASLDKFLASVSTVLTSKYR
Hemoglobin (Hb), full length, sequence (P68871 2-147, chain 2 of 2): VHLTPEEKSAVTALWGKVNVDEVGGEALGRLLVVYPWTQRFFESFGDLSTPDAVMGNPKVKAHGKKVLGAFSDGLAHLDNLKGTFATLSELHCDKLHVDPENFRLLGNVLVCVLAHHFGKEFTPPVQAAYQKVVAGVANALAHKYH

B1: 6R_28 partial (36-mer) (ssRNA)
RNA: CGUAUUACGGCAUUAUUAGGACCAAUGCUGAGUACG
B1: no binding [1]; binds [2].
